How the values were obtained:
c-Abl (mouse) = assay: phosphorylation enrichment, bacterial display (enrichment ratio); higher = better substrate or ligand; peptides without Tyr show the background
c-Src = assay: as above
Jak2 = Jak2 (UniProt O60674); assay: as above
Fyn = Fyn (UniProt P06241); assay: as above
Hck = Hck (UniProt P08631); assay: as above
AncSZ = assay: as above
EPHB1 = EPHB1 (UniProt P54762); assay: as above
Fes = Fes (UniProt P07332); assay: as above
FGFR1 = FGFR1 (UniProt P11362); assay: as above
Fer (mouse) = assay: as above
EPHB2 = EPHB2 (UniProt P29323); assay: as above
MERTK = MERTK (UniProt Q12866); assay: as above
FGFR3 = FGFR3 (UniProt P22607); assay: as above
SHP2-C SH2 = assay: SH2 binding enrichment of the phosphorylated peptide, bacterial display (enrichment ratio); higher = better substrate or ligand; peptides without Tyr show the background
c-Src SH2 = assay: as above
Grb2 SH2 = Grb2 SH2 (UniProt P62993); assay: as above
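Throughout, for SH2 binding enrichment of the phosphorylated peptide, bacterial display: peptide library displayed on the E. coli surface as eCPX fusions, selected cells deep-sequenced, score is each peptide's frequency after selection divided by its frequency in the input.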
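Throughout, for phosphorylation enrichment, bacterial display: 11-residue human phosphosite peptides and single-mutation variants displayed on the E. coli surface, counted by deep sequencing, each peptide's frequency after selection divided by its frequency in the unselected input library; frequency after pTyr selection over input frequency; kinase dosed for 20-30% of maximal phosphorylation in three min.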

Chain of FGFR1 (P11362 whole entry, looked up): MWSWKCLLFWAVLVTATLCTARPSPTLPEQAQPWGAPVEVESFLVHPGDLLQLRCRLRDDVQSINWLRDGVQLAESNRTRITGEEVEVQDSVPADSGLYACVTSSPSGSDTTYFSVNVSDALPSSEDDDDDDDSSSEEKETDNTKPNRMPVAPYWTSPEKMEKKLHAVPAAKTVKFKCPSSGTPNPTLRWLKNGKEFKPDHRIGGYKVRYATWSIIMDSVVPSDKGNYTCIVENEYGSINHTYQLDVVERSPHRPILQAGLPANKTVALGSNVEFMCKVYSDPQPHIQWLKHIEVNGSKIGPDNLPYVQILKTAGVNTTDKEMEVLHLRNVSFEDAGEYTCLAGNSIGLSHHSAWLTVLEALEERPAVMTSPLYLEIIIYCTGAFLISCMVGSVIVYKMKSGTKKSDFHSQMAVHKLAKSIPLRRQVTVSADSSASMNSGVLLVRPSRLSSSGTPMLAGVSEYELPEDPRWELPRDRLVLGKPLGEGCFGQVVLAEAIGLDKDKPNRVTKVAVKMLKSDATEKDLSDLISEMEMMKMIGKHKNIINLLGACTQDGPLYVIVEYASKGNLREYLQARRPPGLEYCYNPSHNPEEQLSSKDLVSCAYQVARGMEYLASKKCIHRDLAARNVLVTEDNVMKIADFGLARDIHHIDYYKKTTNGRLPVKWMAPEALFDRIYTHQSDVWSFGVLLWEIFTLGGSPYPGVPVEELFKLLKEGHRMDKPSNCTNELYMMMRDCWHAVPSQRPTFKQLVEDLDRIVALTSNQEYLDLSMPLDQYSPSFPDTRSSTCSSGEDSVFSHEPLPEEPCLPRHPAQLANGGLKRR
Chain of EPHB2 (P29323 whole entry, looked up): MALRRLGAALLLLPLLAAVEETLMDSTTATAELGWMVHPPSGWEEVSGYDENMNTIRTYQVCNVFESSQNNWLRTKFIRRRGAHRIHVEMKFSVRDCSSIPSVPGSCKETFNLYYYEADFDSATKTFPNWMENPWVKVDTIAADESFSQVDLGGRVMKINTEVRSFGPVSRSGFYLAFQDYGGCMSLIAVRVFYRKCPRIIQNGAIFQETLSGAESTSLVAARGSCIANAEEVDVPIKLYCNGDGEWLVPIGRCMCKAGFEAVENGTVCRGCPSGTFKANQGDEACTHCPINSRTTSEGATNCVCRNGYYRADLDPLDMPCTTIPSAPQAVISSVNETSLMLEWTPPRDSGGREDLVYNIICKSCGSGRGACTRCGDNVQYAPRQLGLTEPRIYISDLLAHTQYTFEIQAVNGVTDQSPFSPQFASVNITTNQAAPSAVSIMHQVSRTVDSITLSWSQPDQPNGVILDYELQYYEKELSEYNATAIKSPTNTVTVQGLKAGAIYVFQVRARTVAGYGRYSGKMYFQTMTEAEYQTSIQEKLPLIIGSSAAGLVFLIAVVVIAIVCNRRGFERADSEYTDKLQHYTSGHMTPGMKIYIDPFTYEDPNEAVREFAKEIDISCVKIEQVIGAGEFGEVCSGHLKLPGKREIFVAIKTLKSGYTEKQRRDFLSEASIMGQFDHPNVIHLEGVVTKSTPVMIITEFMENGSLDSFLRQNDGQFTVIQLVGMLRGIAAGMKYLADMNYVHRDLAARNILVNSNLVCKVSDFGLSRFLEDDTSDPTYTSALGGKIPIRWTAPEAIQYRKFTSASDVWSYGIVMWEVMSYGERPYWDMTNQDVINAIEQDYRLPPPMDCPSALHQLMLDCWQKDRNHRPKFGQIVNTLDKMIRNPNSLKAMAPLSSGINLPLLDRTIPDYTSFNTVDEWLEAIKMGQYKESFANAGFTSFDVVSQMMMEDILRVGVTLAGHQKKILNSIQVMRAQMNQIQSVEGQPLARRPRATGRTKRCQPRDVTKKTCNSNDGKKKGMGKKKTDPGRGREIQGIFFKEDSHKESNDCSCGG
Chain of MERTK (Q12866 whole entry, looked up): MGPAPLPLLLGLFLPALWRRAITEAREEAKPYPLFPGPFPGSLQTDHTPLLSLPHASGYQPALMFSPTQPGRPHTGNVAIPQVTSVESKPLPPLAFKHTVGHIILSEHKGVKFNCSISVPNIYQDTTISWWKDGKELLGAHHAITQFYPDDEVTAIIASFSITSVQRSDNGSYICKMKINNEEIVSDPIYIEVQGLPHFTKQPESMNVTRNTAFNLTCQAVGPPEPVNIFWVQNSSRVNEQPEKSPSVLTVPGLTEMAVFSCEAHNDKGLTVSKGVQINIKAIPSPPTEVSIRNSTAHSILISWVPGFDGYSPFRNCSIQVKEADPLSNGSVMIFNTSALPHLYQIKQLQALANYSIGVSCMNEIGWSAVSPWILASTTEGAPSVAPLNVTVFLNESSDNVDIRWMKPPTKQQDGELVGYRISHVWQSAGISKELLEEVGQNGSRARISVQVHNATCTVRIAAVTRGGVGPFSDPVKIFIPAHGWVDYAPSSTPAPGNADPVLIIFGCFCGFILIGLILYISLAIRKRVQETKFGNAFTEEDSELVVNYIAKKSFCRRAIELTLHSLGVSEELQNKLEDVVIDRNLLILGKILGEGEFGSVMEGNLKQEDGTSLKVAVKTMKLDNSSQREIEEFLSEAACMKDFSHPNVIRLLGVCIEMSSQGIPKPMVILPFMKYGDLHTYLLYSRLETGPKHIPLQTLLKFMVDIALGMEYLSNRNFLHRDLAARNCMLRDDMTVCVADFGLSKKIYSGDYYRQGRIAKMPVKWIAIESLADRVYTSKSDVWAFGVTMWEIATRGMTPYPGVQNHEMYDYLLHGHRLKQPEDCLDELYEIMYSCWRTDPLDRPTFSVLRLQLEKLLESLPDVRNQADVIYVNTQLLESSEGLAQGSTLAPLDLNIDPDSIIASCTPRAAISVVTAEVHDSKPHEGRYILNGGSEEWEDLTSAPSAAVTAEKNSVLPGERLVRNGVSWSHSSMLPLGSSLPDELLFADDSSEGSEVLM
Chain of FGFR3 (P22607 whole entry, looked up): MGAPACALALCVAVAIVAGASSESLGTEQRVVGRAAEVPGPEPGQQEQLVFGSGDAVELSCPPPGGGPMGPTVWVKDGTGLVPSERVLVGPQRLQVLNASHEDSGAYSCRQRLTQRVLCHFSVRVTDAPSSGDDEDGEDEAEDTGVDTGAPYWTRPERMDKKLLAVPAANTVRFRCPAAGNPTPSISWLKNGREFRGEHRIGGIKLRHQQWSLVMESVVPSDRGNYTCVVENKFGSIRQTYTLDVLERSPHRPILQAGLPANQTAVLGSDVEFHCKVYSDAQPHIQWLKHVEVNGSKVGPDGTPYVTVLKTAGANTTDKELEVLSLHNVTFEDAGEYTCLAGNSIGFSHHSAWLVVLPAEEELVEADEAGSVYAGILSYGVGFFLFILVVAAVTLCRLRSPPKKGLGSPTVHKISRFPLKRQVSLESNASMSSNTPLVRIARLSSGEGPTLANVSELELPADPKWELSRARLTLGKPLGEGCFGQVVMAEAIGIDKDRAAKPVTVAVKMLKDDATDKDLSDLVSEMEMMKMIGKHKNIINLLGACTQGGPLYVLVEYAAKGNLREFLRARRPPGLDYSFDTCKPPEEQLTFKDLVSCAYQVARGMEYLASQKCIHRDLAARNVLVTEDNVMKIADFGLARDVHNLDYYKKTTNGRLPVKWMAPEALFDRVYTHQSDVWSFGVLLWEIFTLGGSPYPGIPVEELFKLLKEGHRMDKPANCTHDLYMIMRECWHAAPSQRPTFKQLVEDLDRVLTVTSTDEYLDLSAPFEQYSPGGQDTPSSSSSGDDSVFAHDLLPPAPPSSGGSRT
Chain of Fes (P07332 whole entry, looked up): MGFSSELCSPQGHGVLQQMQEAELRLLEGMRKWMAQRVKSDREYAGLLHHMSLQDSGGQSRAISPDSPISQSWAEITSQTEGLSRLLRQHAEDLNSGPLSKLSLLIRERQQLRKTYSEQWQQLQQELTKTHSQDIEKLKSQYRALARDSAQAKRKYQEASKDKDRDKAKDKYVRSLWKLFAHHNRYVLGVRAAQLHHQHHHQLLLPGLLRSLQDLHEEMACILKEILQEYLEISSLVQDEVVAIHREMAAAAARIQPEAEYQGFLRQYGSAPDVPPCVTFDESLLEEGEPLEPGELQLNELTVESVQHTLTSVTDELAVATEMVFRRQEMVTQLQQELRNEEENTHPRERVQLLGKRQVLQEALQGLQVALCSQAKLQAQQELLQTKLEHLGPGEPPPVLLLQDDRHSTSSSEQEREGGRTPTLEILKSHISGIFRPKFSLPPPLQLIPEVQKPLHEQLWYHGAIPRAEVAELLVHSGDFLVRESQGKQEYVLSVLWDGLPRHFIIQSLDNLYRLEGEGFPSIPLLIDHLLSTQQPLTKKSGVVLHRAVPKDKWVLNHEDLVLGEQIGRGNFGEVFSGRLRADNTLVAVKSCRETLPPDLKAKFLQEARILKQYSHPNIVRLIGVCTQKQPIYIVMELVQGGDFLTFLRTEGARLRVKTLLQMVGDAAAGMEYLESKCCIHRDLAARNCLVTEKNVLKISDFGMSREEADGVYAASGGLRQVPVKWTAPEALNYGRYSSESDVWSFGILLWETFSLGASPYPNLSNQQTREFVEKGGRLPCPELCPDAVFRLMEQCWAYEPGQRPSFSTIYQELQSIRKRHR
Chain of Fyn (P06241 whole entry, looked up): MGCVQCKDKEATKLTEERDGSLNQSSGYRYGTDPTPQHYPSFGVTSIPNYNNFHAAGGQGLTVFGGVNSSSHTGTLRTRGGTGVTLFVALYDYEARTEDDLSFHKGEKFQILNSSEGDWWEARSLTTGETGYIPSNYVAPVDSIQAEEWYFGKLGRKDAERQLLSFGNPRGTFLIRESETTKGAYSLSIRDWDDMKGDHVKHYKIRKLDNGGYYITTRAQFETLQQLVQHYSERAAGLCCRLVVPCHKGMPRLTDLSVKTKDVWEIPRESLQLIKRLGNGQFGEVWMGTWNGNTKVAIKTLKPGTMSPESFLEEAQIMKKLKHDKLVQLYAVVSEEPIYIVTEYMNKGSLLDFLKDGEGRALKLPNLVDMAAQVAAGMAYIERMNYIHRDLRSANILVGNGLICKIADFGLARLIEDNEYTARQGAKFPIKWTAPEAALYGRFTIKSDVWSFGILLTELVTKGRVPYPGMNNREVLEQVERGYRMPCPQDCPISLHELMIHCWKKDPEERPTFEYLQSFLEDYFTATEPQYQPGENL

Sequence | phosphorylation enrichment (c-Abl (mouse)) | phosphorylation enrichment (c-Src) | phosphorylation enrichment (Jak2) | phosphorylation enrichment (Fyn) | phosphorylation enrichment (Hck) | phosphorylation enrichment (AncSZ) | phosphorylation enrichment (EPHB1) | phosphorylation enrichment (Fes) | phosphorylation enrichment (FGFR1) | phosphorylation enrichment (Fer (mouse)) | phosphorylation enrichment (EPHB2) | phosphorylation enrichment (MERTK) | phosphorylation enrichment (FGFR3) | SH2 binding enrichment (SHP2-C SH2) | SH2 binding enrichment (c-Src SH2) | SH2 binding enrichment (Grb2 SH2)
RNDQVYQPLRD [CD3D_Y149] | 0.728 | 4.45 | 0.673 | 5.01 | 10.9 | 0.875 | 1.26 | 0.7 | 1.17 | 0.575 | 1.18 | 1.26 | 0.927 | 0.491 | 0.663 | 0.787
RNVFFYSFLLK [PTEN_Y178_Y174N_YF] | 1.23 | 0.508 | 1.59 | 0.656 | 0.565 | 1.29 | 0.861 | 1.72 | 0.586 | 0.697 | 0.738 | 0.757 | 1.31 | 1.02 | 0.907 | 1.22
RNYGTYTAGLS [RHBDD1_Y264_D262G] | 0.629 | 1.94 | 0.74 | 2.18 | 2.76 | 0.781 | 0.804 | 0.748 | 0.546 | 0.519 | 3.23 | 0.55 | 0.533 | 0.512 | 0.533 | 0.835
RPYSPYIIRGM [LRP5_Y1531_R1529S] | 0.681 | 1.07 | 0.508 | 0.848 | 0.642 | 0.886 | 0.59 | 0.816 | 0.399 | 1.75 | 0.575 | 0.438 | 0.509 | 0.953 | 1.08 | 1.16
RQQEDYLLFKQ [RARRES1_Y159_YF] | 0.924 | 0.576 | 1.39 | 0.68 | 1.16 | 1.57 | 1.11 | 1.85 | 1.45 | 0.637 | 0.978 | 0.516 | 1.28 | 0.838 | 0.571 | 0.892
RQQQDYWLIDV [ANPEP_Y600] | 1.32 | 1.47 | 2.43 | 0.847 | 0.625 | 3.3 | 8.95 | 1.6 | 20.6 | 3.21 | 4.64 | 4.02 | 17.4 | 0.913 | 0.586 | 1.07
RRERLYGGGGG [FUS_Y526_P525L] | 0.39 | 0.878 | 0.528 | 0.535 | 0.365 | 0.701 | 0.677 | 1.14 | 0.546 | 0.499 | 0.398 | 0.561 | 0.545 | 0.404 | 0.402 | 0.657
RRGMPYGGHGD [TGM1_Y312_R315H] | 0.357 | 0.434 | 0.377 | 0.706 | 0.52 | 0.572 | 0.414 | 0.653 | 0.758 | 0.582 | 0.624 | 0.465 | 0.472 | 0.764 | 0.415 | 0.97
RRNEEYCLLDS [ITK_Y198] | 0.821 | 0.805 | 1.57 | 1.7 | 1.1 | 2.25 | 1 | 1.64 | 1.15 | 0.967 | 1.06 | 1.26 | 1.12 | 0.54 | 0.836 | 0.75
RRVLVYGDRGA [QDPR_Y16_G18D] | 0.445 | 0.573 | 0.485 | 0.542 | 0.525 | 0.585 | 0.34 | 0.539 | 0.413 | 0.424 | 0.322 | 0.48 | 0.549 | 0.529 | 0.442 | 0.838
RRYVYYYSYLL [PTEN_Y177] | 1.39 | 0.79 | 0.986 | 0.771 | 0.764 | 0.814 | 0.672 | 0.768 | 1.88 | 0.518 | 0.829 | 3.68 | 1.11 | 0.65 | 0.474 | 0.631
RSRRSYSCQVM [IGLL1_Y192] | 0.797 | 0.924 | 0.774 | 0.808 | 0.64 | 0.754 | 0.616 | 0.862 | 0.586 | 0.639 | 0.802 | 0.9 | 0.832 | 0.565 | 0.565 | 0.473
RTMPDYTSFNT [EPHB2_Y912_I909M] | 0.618 | 1.31 | 0.692 | 1.07 | 0.591 | 1.38 | 0.724 | 0.947 | 1.05 | 0.705 | 0.961 | 0.459 | 1 | 0.463 | 0.521 | 0.935
RTTKTYFPHFD [HBA1_Y43_P38R] | 0.884 | 1.24 | 2.09 | 0.418 | 0.569 | 0.967 | 1.1 | 0.86 | 0.914 | 0.458 | 0.527 | 0.87 | 1.17 | 1.18 | 1.23 | 1.28
RVDRDYVLKSA [HTATIP2_Y111] | 0.709 | 0.961 | 0.75 | 0.47 | 0.772 | 1.08 | 0.487 | 0.872 | 0.627 | 0.665 | 0.442 | 0.857 | 0.585 | 0.653 | 0.418 | 0.976
RVLHNYLVWRV [ECEL1_Y400] | 0.762 | 0.526 | 1.07 | 0.867 | 1.01 | 2.51 | 1.6 | 1.93 | 1.4 | 1.12 | 1.12 | 0.79 | 1.7 | 1.79 | 1.73 | 1.74
RVQQIYSDSDL [MIB1_Y376] | 1.31 | 5.32 | 0.902 | 4.75 | 3.68 | 1.32 | 1.45 | 1.32 | 0.574 | 3.92 | 0.837 | 4.58 | 0.852 | 0.962 | 0.541 | 0.842

Source: the supplement of paper PMC10065799, “High-throughput profiling of sequence recognition by tyrosine kinases and SH2 domains using bacterial peptide display” (eLife, 2023)
